A short description of data set [1]: cell surface staining, flow cytometry; reducing immunoblot. As to conditions: glycan lost; control: WT mTRAIL-R.
A short description of data set [2]: non-reducing SDS-PAGE immunoblot, transient overexpression. As to conditions: glycan lost; control: WT mTRAIL-R. (In general: In western blotting, separated proteins are transferred to a membrane and probed.)
A short description of data set [3]: cell surface flow cytometry, 7 h TU. As to conditions: glycan lost; control: untreated MEFs. (A flow cytometer gives signals particle by particle.)
A short description of data set [4]: streptavidin pulldown, non-reducing immunoblot. As to conditions: glycan lost; control: untreated MEFs.

Experimental findings from article PMC5931557 are described below.

B1: mTRAIL-R: N99/N122/N150Q (protein)
parent chain: MEPPGPSTPTASAAARADHYTPGLRPLPKRRLLYSFALLLAVLQAVFVPVTANPAHNRPAGLQRPEESPSRGPCLAGQYLSEGNCKPCREGIDYTSHSNHSLDSCILCTVCKEDKVVETRCNITTNTVCRCKPGTFEDKDSPEICQSCSNCTDGEEELTSCTPRENRKCVSKTAWASWHKLGLWIGLLVPVVLLIGALLVWKTGAWRQWLLCIKRGCERDPESANSVHSSLLDRQTSSTTNDSNHNTEPGKTQKTGKKLLVPVNGNDSADDLKFIFEYCSDIVPFDSWNRLMRQLGLTDNQIQMVKAETLVTREALYQMLLKWRHQTGRSASINHLLDALEAVEERDAMEKIEDYAVKSGRFTYQNAAAQPETGPGGSQCV
As for B1, in data set [1], the expression_or_secretion result was “no change, the mean intensity of the signal was even weaker for the N99/N122/N150Q mTRAIL-R-expressing cells”. Further, the oligomerisation entry in data set [2] is given as “changes”.

B2: mTRAIL-R: tunicamycin (protein)
parent chain: B1 parent chain
Regarding B2, the localisation_or_trafficking entry in data set [3] is on record as “no change”. In addition, the oligomerisation result in data set [4] is listed as “changes”.
